# According to FireProtDB:
# Settings: Bos taurus; pH 8; 30 °C; GdnHCl; CD; borate 10 mM
# Phospholipase A2 wild type, P00593, sequence (P00593 whole entry): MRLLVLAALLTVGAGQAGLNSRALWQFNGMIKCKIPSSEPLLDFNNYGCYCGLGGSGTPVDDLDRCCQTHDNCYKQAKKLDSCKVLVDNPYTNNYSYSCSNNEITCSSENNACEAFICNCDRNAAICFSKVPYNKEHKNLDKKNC
substance,measurement,value
"Phospholipase A2 wild type, P00593",denaturant m value,1.47 kcal/mol/M
same,denaturant midpoint (higher = more stable),6.9 M
same,unfolding free energy,9.5 kcal/mol
